The target in this experiment is BTN2A1 B30.2 domain (human). The experiment is described as follows: SEC-MALS. Background: SEC sorts molecules by how far they enter the pores of the column.

1 substance from publication doi:10.1101/2022.01.02.474068 can be followed below.

“BTN2A1 B30.2 domain (domain or fragment)”: the stoichiometry N (usually the number of molecules, sites or subunits per partner or assembly) stood at 2.
